assay: yeast display, Sf9 membrane polyspecificity reagent, FACS + sequencing; frameworks hold sequencing errors
Method in brief: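 Genes from sorted yeast were amplified by colony PCR, read by MiSeq 2 × 250 sequencing and filtered on CDR length. These cells carried a synthetic nanobody library in Saccharomyces cerevisiae BJ5465 and were sorted by FACS into low and high (top ~1%) gates on anti-HA and streptavidin fluorescence. Polyreactivity is labelled according to the gate of origin.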

Row | Sequence | polyreactivity (PSR sort gate)
1 | QVQLVESGGGLVQAGGSLRLSCAASGSTFERYAMGWYRQAPGKKWSWLPYADSVKGRFTISRDNAKNTVYLQMNSLKPEDTAVYYCNAERDSPPLNLDRGWEYDYWGQGTQVTVSS | low polyreactivity
2 | QVQLVESGGGLVQAGGSLRLSCAASGSTFESNAMGWYRQAPGKERELVAAISYIDTSTYYADSVKGRFTISRDNAKNTVYLQMNSLKPEDTAVYYCATDVDWAYGYQYEYWGQGTQVTVSS | low polyreactivity
3 | QVQLVESGGGLVQAGGSLRLSCAASGSTFETYAMGWYRQAPGKEMELVAAISKTGARTYYADSVKGRFTISRDNAKNTVYLQMNSLKPEDTAVYYCAAERKAHRKPHSRVDKYYYWGQGTQVTVSS | high polyreactivity
4 | QVQLVESGGGLVQAGGSLRLSCAASGSTFEVYTMGWYRQAPGKARELVADITWSGGNTYYADSVKGRYTISRDNAKNTVYLQMNSLKPEDTAVYYCAVDGGEFSSYGYWGQGTQVTVSS | low polyreactivity
5 | QVQLVESGGGLVQAGGSLRLSCAASGSTFEYNAMGWYIQAPGKERELVASSTNYADSVKGRFTISRDNANNTVYLQMNSLKPEDTAVYYCAREQCVNRNHDYWGQGTQVTVSS | low polyreactivity
6 | QVQLVESGGGLVQAGGSLRLSCAASGSTFEYNAMGWYRQAPGKERELVASSTNYADSVKGRFTISRDNAKNTVYLQMNSLKPEDTAVYYCARVQGVNRNHDYWGQGTQVTVSS | low polyreactivity
7 | QVQLVESGGGLVQAGGSLRLSCAASGSTFEYYAMGWYRQAPGKERELVATITLIAGSTYADSVKGRFTISRDNAKNTVYLQMNSLKPEDTAVYYCAADDGGYESPEFVYGGRGDYWGQGTQVTVSS | low polyreactivity
8 | QVQLVESGGGLVQAGGSLRLSCAASGSTFEYYGMGWYRQAPGKERELVATITSGGSTNYADSVKGRFTISRDNAKNTVYLQMNSLKPEDTAVYYCAVDISNSLGGGFGYDYWGQGTQVTVSS | low polyreactivity
9 | QVQLVESGGGLVQAGGSLRLSCAASGSTFFDYAMGWYRQAPGKEREFVAAISRSGDTNYADSVKGRFTISRDNAKNTVYLQMNSLKPEDTAVYYCAKDWAYRRHWVGFYYWGQGTQVTVSS | low polyreactivity
10 | QVQLVESGGGLVQAGGSLRLSCAASGSTFFFNAMGWYRQAPGKERELVAAITGRSGSTYYADSVKGRFTISRDNAKNTVYLQMNSLKPEDTAVYYCAADFSPWRSDFDYWGQGTQVTVTS | low polyreactivity
11 | QVQLVESGGGLVQAGGSLRLSCAASGSTFFGNAMGWYRQAPGKERELVAAITSGGSTNYADSVKGRFTISRDNAKNTVYLQMNSLKPEDTAVYYCAKEYHYYYWGQGTQVTVSS | low polyreactivity
12 | QVQLVESGGGLVQAGGSLRLSCAASGSTFFGYDMGWSRQAPGKERELVATINSGGSTYYADSVKGRFTISRDNAKNTVYLQMNSLKPADTAVYYCAARPSYLYPYDRTGEYDYWGQGTQVTVSS | high polyreactivity
13 | QVQLVESGGGLVQAGGSLRLSCAASGSTFFGYTMGWYRQAPGKERELVAAITASDGSTYYADSVKGRFTISRDNAKNTVYLQMNSLKPEDTAVYYCNADYRLVRSFRLSSYTYIYDYWGQGTQVTVSS | low polyreactivity
14 | QVQLVESGGGLVQAGGSLRLSCAASGSTFFHNAMGWYRQAPGKEREWVAAINWNGGSTYYADSVKGRFTISRDNAKNTVYLQMNSLKPEDTAVYYCAADIYTYLGAYYIGYYWGQGTQVTVSS | low polyreactivity
15 | QVQLVESGGGLVQAGGSLRLSCAASGSTFFHYPMGWYIQATGKERELVAAISWSGGRTSYADSVKGRFTISRDNAKNTVYLQKNSLKPEDTAVYYCAARGRYKDVYRMDYWGQGTQVTVSS | high polyreactivity
16 | QVQLVESGGGLVQAGGSLRLSCAASGSTFFIYAMGWYRPAPGKERELVAAISWRDGSTYYADSVKGRFTISRDNAKNTVYLQMNSLKPEDTAVYYCAADYLLPWGIELDYWGQGTQVTVSS | high polyreactivity
17 | QVQLVESGGGLVQAGGSLRLSCAASGSTFFKYGMGWYRQAPGKERELVATISSRGGNTSYADSVKGRFTISRDNAKNTVYLLMNSLKPEVTAVYLCNAKLVYVGDTTTWGQGTQVTVSS | low polyreactivity
18 | QVQLVESGGGLVQAGGSLRLSCAASGSTFFLYAMGWYIQAPGKERELVAAISGSGGTTYYADSVKGRFTISRDNAKNTVYLQMNSLKPEDTAVYYCNKDYYPGSYDYWGQGTQVTVSS | low polyreactivity
19 | QVQLVESGGGLVQAGGSLRLSCAASGSTFFPNAMGWYRQAPGKERELVAAIRWRGGTYYADSVKVRFTISRDNAKNTVYLQMNSLKPEDTAVYYCATSVKPSYDYWGQGTQVTVSS | low polyreactivity
20 | QVQLVESGGGLVQAGGSLRLSCAASGSTFFPNGMGWYRQARGKEWELVAAITQDGGSTYYADSVKGRFTISRDNAKNTVYLQMNSLNPEDTAVYYCAASAGPYYEYGYWGQGTQVTVSS | low polyreactivity

Row | Sequence | polyreactivity (PSR sort gate)
21 | QVQLVESGGGLVQAGGSLRLSCAASGSTFFPYAMGWYRQAPGKERELVAGISSDGGTSYADSVKGRFTISRDNAKNTVYLQMNSLKPEDTAVYYCAALQADRDRYPAFDLMDYWGQGTQVTVSS | low polyreactivity
22 | QVQLVESGGGLVQAGGSLRLSCAASGSTFFRNAMGWYRQAPGKDRELVAAISSSGGRTYYADSVKGRFTISRDNAKNTVYLQMNSLKPVETAVYYCAVVSSHYKGPGRNGYDYWAQGTQVTVSS | high polyreactivity
23 | QVQLVESGGGLVQAGGSLRLSCAASGSTFFRNAMGWYRQAPGKERELVAAISKSGTSTYYADSVKGRFTISRDNAKNTVYLQMNSLKPEDTAVYYCAKYGFSYPQSYAYYYWGQGTQVTVSS | high polyreactivity
24 | QVQLVESGGGLVQAGGSLRLSCAASGSTFFRYAMGWYRHAPVKERELVAAISASGGRTYYADSVKGRFTISRDNAKNTVYLLMNSLKPEDTAVYYCNRQYGPYQYYYWGQGTQVTVSS | high polyreactivity
25 | QVQLVESGGGLVQAGGSLRLSCAASGSTFFRYAMGWYRQAPGKERELVAAITTSGGNTYYADSVKGRFTISRDNAKNTVYLQMNSLKPEDTAVYYCNVLRGFPRYYYWGQGTQVTVSS | high polyreactivity
26 | QVQLVESGGGLVQAGGSLRLSCAASGSTFFRYARGWYIQAPGKEREFVAAISKRGGSTHYADSVKGRFTISRDNAKKTVYLQMNSLKPADTAVYYCAASSFTSSYNYWGQGTQVTVSS | high polyreactivity
27 | QVQLVESGGGLVQAGGSLRLSCAASGSTFFSYAMGWYRQAPGKERDLVAAITSNGGTTHYADSVKGRFTISRDNAKNTVYLQMNSLKPEDTADYYCAKAQGHVRGSRGLQGGRYDYWGQGTQVTVSS | low polyreactivity
28 | QVQLVESGGGLVQAGGSLRLSCAASGSTFFSYAMGWYRQAPGKERELVAAISWIDDGTYYADSVKGRFTISRDNAKNTVYLQMNSLKPEDTAVYYCAADIGAYRTWDYEYWGQGTQVTVSS | low polyreactivity
29 | QVQLVESGGGLVQAGGSLRLSCAASGSTFFSYAMGWYRQAPGKERELVAVITGSDGRTFYADSVKGRFTISRDNAKNTVYLQMNSLKPEDTAVYYCAADAVFRATRYDRSTSEDDYWGQGTQVTVSS | low polyreactivity
30 | QVQLVESGGGLVQAGGSLRLSCAASGSTFFTNTMGWYRQAPGKERELVAAISKSGGSTYYADSVKGRFTISRDNAKNTVYLQMNSLKPEDTAVYYCAASDRYGGRDYWGQGTQVTVSS | high polyreactivity
31 | QVQLVESGGGLVQAGGSLRLSCAASGSTFFVYAMGWYRQSPGKERELVADITNSGGNTYYADSVKGRFTISRDNAKNTVFLQMISLKPEDTAVYYCSGEYWFTSYDSWGQGTQVTVSS | high polyreactivity
32 | QVQLVESGGGLVQAGGSLRLSCAASGSTFFWYAMGWYRQAPGKEREFVAAITYRGGSTHYADSVKGRFTISRDNAKNTVYLQMNSLKPEDTAVYYCAARSLRYPYDYWGQGTQVTVSS | low polyreactivity
33 | QVQLVESGGGLVQAGGSLRLSCAASGSTFFYNAMGWYRQAPGKERELVAAISKRGDRTYYADSVKGRFTISRDNAKNTVYLQMNSLKPEDTAVYYCAADSYSFSYYIEYDYWGQGTQVTVSS | high polyreactivity
34 | QVQLVESGGGLVQAGGSLRLSCAASGSTFFYYAMGWSRQEPGKERELVASISSRGGSTYYADSVKGRFTISRDNAKNTVYLQMYSLKPEDTAVYYCAADLWAYGPLWRWSRADYDYWGQGTQVTVSS | low polyreactivity
35 | QVQLVESGGGLVQAGGSLRLSCAASGSTFFYYAMGWYRQAPGKERELVARISGGGSTNYADSVKGRFTISRDNAKNTVYLQMNSLKPEDTAVYYCAADRYHYYRYSYGRYGYWGQGTQVTVSS | high polyreactivity
36 | QVQLVESGGGLVQAGGSLRLSCAASGSTFGAYAMGWYRQAPGKEMELVAAISRRGGSTYYADSVKGRFTISRDNAKNTVYLQMNSLKPEDTAVYYCNAVGTRVDGEHYYWGQGTKVTVSS | high polyreactivity
37 | QVQLVESGGGLVQAGGSLRLSCAASGSTFGAYAMGWYRQAPGKERELVAAISSSDGSTYYADSVKGRFTISRDTAKNTVYLQMNSLKPEDTAVYYCAAEYYSAVYIDEYWYDYWGQGTQVTVSS | high polyreactivity
38 | QVQLVESGGGLVQAGGSLRLSCAASGSTFGDNAMGWYRQAPGKEREFVAAITTSGTSTYYADSVKGRFTISRDNAKNTVYVQMNSLKPEDTAVYYCAAYSRAAAGFYSSRRDYYWGQGTQVTVSS | low polyreactivity
39 | QVQLVESGGGLVQAGGSLRLSCAASGSTFGDYAMGWFRQAPGKERELVAAMNSGDSRNYADSVKGRFTISRDNAKNTVYLQMNSLKPEDTAVYYCAAEPWSISYVYYKYKYESWGQGTQVTVSS | low polyreactivity
40 | QVQLVESGGGLVQAGGSLRLSCAASGSTFGDYVMGWYRQAPGKERELVATITDSGGSTYYADSVKGRFTISRDNAKNTVYLQMNSLKPEDTAVYYCNKDFSVEVYDTAYNYYSYRYGYWGQGTQVTVSS | low polyreactivity

From the nanobody polyreactivity screen of Harvey et al. (2022)
